Results taken from patent US20230310702A1, “SELF-ASSEMBLING PEPTIDES, PREPARATION METHODS, SELF-ASSEMBLING PEPTIDE FORMULATIONS AND USE” (Success Bio-Tech Co., Ltd., priority 2020, published 2023).
“Also recorded” adds a separate entry of the source.

Assays:
[1] = Rheological property detection (storage modulus of triggered gel); type: physicochemical; settings: concentration of 2.5%; after contact with a metallic ion or change pH value
Experimental: (§1) Peptide solutions with different concentrations were prepared, and an appropriate amount of 10×PBS was added such that the final PBS concentration of the solution was 1×, after the solution was in contact with PBS to be triggered to be gel, the gel was taken out slowly with a spoon and placed onto a rheometer plate. A 40 mm plate was placed leaving the gap of about 450 µm, and kept at 37° C. for 5 minutes under a pressure of 1 pa, and frequency scanning was at 0.1 hz-10 hz. […] The highest concentration of the solution was set with the reference to the highest concentration at which a gel will not form immediately when the peptide was fully dissolved, according to which peptide solutions with a serial of diluted concentrations were prepared to perform storage modulus detections. For peptides represented by ① and ② in which the head and the tail are Pro, the storage modulus were able to reach 1000pa or higher after the PBS triggered the gelation, whereas before gelation, the solution can also maintain good fluidity.

[2] = Viscosity testing of peptide solution (rheometer); type: physicochemical; settings: shear rate 10 1/s
Experimental: A peptide solution was prepared, a 50 mm plate was chosen for the rheometer, a 1 mm gap was set, and 2 ml of the peptide solution was taken, and placed in the gap under the plate. The shear rate was set as 10 1/s. Average values were recorded.

[3] = Fluidity / viscosity of peptide solutions on dissolution (observation); type: physicochemical; settings: for viscosity during dissolution: with increasing concentration
Experimental: as §1

rabbit back skin wound = test: Rabbit hemostasis experiment on the back; type: in vivo, New Zealand rabbits
Experimental: Hemostatic procedures: a peptide aqueous solution ① with a concentration of 3% was prepared for rabbit hemostasis on the back. After injection of anesthesia via ear veins in New Zealand rabbits, a skin incision of about 1.5 cm was made on the back, and an incision depth was made until a blood vessel ruptured, and blood flowed out. After the blood flowed out was wiped off with a gauze, the peptide aqueous solution was sprayed onto a wound site immediately, and timing was conducted. In the hemostatic process, oozed blood was wiped constantly with a gauze, until no blood flowed out, and the timing was stopped, and after 1 minute, excess gel was removed, and the wound was observed whether the blood further oozed out.

liver wound = test: Rabbit liver hemostasis experiment; type: in vivo
Experimental: Hemostatic process: a peptide aqueous solution ① with a concentration of 3% was prepared, abdomen was opened after anesthesia of the rabbit, liver was exposed, and after the hepatic vessel was lacerated, the blood flowed out. After the blood flowed out was wiped off with a gauze, the peptide aqueous solution was sprayed onto the wound site immediately, and timing was conducted.

[4] = test system: stomach mucosa (posterior submucosal layer); test: Rabbit stomach submucosal injection; type: in vivo, New Zealand rabbit; settings: 0.5 ml injected, 25G needle, observed 30 min
Experimental: After a New Zealand rabbit was fastened for 24 hours, injection anesthesia was conducted from the ear vein, the abdomen was then opened, afterwards a stoma was made in the anterior wall of the stomach to expose a stomach mucosa, and 0.5 ml of normal saline was injected into a posterior submucosal layer using a 25G needle. After being observed for 30 min, the rabbit was sacrificed, a tissue was then taken out and fixed in formalin for 2 days, embedded by paraffin, sectioned, and finally stained with hematoxylin and eosin (FIG. 8A). 0.5 ml of a 10 mg/ml sodium hyaluronate solution (FIG. 8B) and 0.5 ml of a 3% peptides ① water solution (FIG. 8C) were injected by the same method.

[5] = test system: colonic mucosa (submucosal layer); test: Colonic submucosal injection of rabbits; type: in vivo, New Zealand rabbit; settings: 0.5 ml injected, 25G needle, observed 30 min; colon
Experimental: A New Zealand rabbit was fastened for 24 hours, injection of anesthesia was conducted via the ear vein, the abdomen was then opened, afterwards an open cutting was conducted along a midline of a colon to expose the colonic mucosa, 0.5 ml of normal saline was injected into the submucosal layer using a 25G needle. After observing for 30 min, the rabbit was sacrifice, a tissue was then taken out and fixed in formalin for 2 days, embedded by paraffin, sectioned, and finally stained with hematoxylin and eosin (FIG. 9B). 0.5 ml of a 10 mg/ml sodium hyaluronate solution (FIG. 9C) and 0.5 ml of a 3% peptide aqueous solution ① (FIG. 9D) were injected by the same method. An untreated normal tissue was used as a control (FIG. 9A).

[6] = 3% peptide aqueous solution sprayed onto liver wound

Row | Substance | Viscosity ([2]; concentration 1%) | Viscosity ([2]; concentration 2%) | viscosity during dissolution [3] | Viscosity ([2]; concentration 3%) | Viscosity ([2]; concentration 4%) | fluidity of solution ([3]; before gelation) | also measured
1 | AC-Arg-Ala-Asp-Ala-Arg-Ala-Asp-Ala-Arg-Ala-Asp-Ala-Arg-Ala-Asp-Ala- amide [compound ⑤] | 955.17 mPa·s | 1817.96 mPa·s | increased with the increase of the concentrations |  |  |  | storage modulus [1]: less than 700 pa; Viscosity ([2]; concentration 1%, listed as AC-(RADA)4-amide): high viscosity; also recorded: high viscosities; Viscosity ([2]; concentration 2.5%): 2514.57 mPa·s; fluidity of solution ([3]; concentration of 2.5%): almost lost fluidity
2 | AC-Arg-Val-Asp-Val-Arg-Val-Asp-Val-amide (Ac-RVDVRVDV-NH2) [comparison peptide without Pro in the viscosity test] | 658.25 mPa·s | 1546.21 mPa·s |  |  |  |  | Viscosity ([2]; concentration 1%, listed as AC-RVDVRVDV-amide): high viscosities
3 | AC-Pro-Arg-Val-Asp-Val-Arg-Pro-Asp-Val-Arg-Val-Asp-Pro-amide (Ac-PRVDVRPDVRVDP-NH2) [compound ④] |  |  | increased with the increase of the concentrations |  |  |  | 
4 | AC-Pro-Arg-Val-Asp-Val-Arg-Val-Asp-Pro-amide (Ac-PRVDVRVDP-NH2) [compound ①] |  |  |  | Under the detection limit | No viscosity numerical value was detected; also recorded: Under the detection limit | good fluidity | time until no blood flowed out (rabbit back skin wound; 3% peptide aqueous solution sprayed onto back skin incision): about 20 s; gel formation on the wound (rabbit back skin wound; 3% peptide aqueous solution sprayed onto back skin wound): formed immediately; bleeding after hydrogel covering the surface was removed (rabbit back skin wound; 3% peptide aqueous solution, back skin wound): no blood oozed out; gel formation on contact with blood (liver wound; [6]): formed immediately; time until bleeding completely stopped (liver wound; [6]): about 15 s; hemostasis after excess hydrogel was removed (liver wound; 3% peptide aqueous solution, liver wound): hemostasis still obtained; submucosal cushion layer (hematoxylin and eosin staining) [4]: fine and tight, and not loose; submucosal filling (hematoxylin and eosin staining) [5]: filled with the peptide gel
5 | AC-Pro-Arg-Val-Asp-Val-Arg-Val-Asp-Val-amide (Ac-PRVDVRVDV-NH2) [compound ③] |  |  | increased with the increase of the concentrations |  |  |  | 
6 | AC-Pro-Lys-Val-Glu-Val-Lys-Val-Glu-Pro-amide (Ac-PKVEVKVEP-NH2) [compound ②] |  |  |  | Under the detection limit | No viscosity numerical value was detected; also recorded: Under the detection limit | good fluidity | 
